Assay results taken from the supplement of paper PMC9170038.

Tests used:
MS2 coat protein [1] = experiment: apparent KD of MS2 coat protein, switch OFF state (with FMN for OFF switches, without FMN for ON switches); designed switch direction (-1 OFF switch, 1 ON switch): -1; higher = weaker reporter binding; conditions: FMN input: 0 or 200 uM; Eterna round: R93 (includes R88 designs)
Method in brief: (§1)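 Illumina sequencing clusters were used for on-chip transcription of designed RNA switches. Titration with SNAP-549-labelled MS2 coat protein followed, in twofold steps from 0.7 or 1.5 nM to 3 µM in 100 mM Tris-HCl pH 7.5, 80 mM KCl, 4 mM MgCl2, without or with constant ligand. Apparent KD is each design's median of fits to normalised cluster binding curves.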

MS2 coat protein [2] = experiment: apparent KD of MS2 coat protein, switch ON state; designed switch direction (-1 OFF switch, 1 ON switch): -1; higher = weaker reporter binding; conditions: FMN input: 0 or 200 uM; Eterna round: R93 (includes R88 designs)
Method in brief: as §1

Sequence	apparent KD of MS2 coat protein (MS2 coat protein [1]) [nM]	apparent KD of MS2 coat protein (MS2 coat protein [2]) [nM]
AAGGGACAUGAGGAUCACCCAUGUUAGGAUAUCGGAAAAGGAAAAAAAAAAAAGAAGACGAGAAGGGACACCAA	48.8	59.5
AAGGUACGAGGAUAUACAUAGAUACAGACACAUGUGGAUGUACAUGAGGAUCACCCAUGUAGAAGGCGUAUAUA [AJ 21]	101	64
AAGGUACGAGGAUAUACAUAGAUACAGACACAUGUUCAUGUACAUGAGGAUCACCCAUGUAGAAGGCGUAUAUA [AJ 17]	147	56.7
AAGUAGGUAGGAUAUACAUAGAUACAGAUUCAUGUGGAACUACAUGAGGAUCACCCAUGUAGAAGGACCUAAUA [AJ 40]	126	30.2
AAGUUAUUAGGAUAUACUUGUGCGAUUAAUACGUUGAUAGUACAUGAGGAUCACCCAUGUAGAAGGAAUAAAAA [JR_Exc002_Sub411]	25.9	38.4
AAUAAACAUGAGGAUCACCCAUGUCAGGAUAUGCAUCUAACCUAAUAACAUAAAUACAGCAGAAGGGACUAAUA [JR_Exc001_Sub602]	25	26.8
AAUAAACAUGAGGAUCACCCAUGUGAGGAUAUACAAAUAAAUAAAAAUAAAAUAAAAAGUAGAAGGCACAAUAA [JR_Exc001_Sub001]	27.8	23.5
AAUAAACAUGAGGAUCACCCAUGUGAGGAUAUGGUAUAAUAAGGACAGUAAUGAUAAACCAGAAGGCACAAAUA [JR_Exc001_Sub1102]	34.7	30.5
AAUAACACAGGAUAUACUAAAGAAAUGAAAAGAAAUAAAGAACAUGAGGAUCACCCAUGUAGAAGGGUGAAUAA [Shenshek]	186	204
AAUAAGUCAGGAUAUACUAAAGAAAUGAAAAGGGAUAAAGAACAUGAGGAUCACCCAUGUAGAAGGGACAAUAA [Sakir-Har]	51.6	93.2
AAUACACAUGAGGAUCACCCAUGUAAGGAUAUCGAAAAAAAAAUAAACAAAAAACAAACGAGAAGGUACAAAAA [Exclusion 1 design 3]	33.6	33.2
AAUUCACAUGAGGAUCACCCAUGUAAGGAUAUCGAAAAAAAACUAAACAAAAAACAAACGAGAAGGUACAAAAA [Exclusion 1 design 5]	31.6	25.5
AAUUCACAUGAGGAUCACCCAUGUAAGGAUAUCGAAAUAAAACUAAUCAAUAAACAAACGAGAAGGUACAAAAA [Exclusion 1 design 8]	24	20.4
ACAAGCCUAGGAUAUACAUGAGGAUCACCCAUGUGAAAGAACCGGUGACUCCUGGAAAGUAGAAGGAGGAAUCG [Biatla]	40.1	44.7
ACAAGGUCAGGAUAUACAUGAGGAUCACCCAUGUGAGAAUUCGAUUAAAACACACAAAGUAGAAGGGACCAGGA [Ruby 83]	33.6	22
ACCAAUGGAGGAUAUACAUGAGGAUCACCCAUGUUUAUCCUACAUAGGUGAAAAACAUGUAGAAGGCCAUAGGA [EX3 237: Super Stable 37]	12	11.1
ACCAAUGGAGGAUAUACAUGAGGAUCACCCAUGUUUAUCCUACAUAGGUGAAAAAUAUGUAGAAGGCCAUAGGA [EX3 238: Super Stable 38]	10.8	13.2
ACCUGACAUGAGGAUCACCCAUGUCAGGAUAUGACUUCGAAAAAAAAAAAAAACGAUGUCAGAAGGGACAUGGG [Design 70: Sub-opt P]	15.9	15.4
ACUUAUGAAGGAUAUACUAACAACAUACACUCAACACACACACAUGAGGAUCACCCAUGUAGAAGGUCAAACAU [JR_Exc002_Sub1205]	18.2	19.6
AGAAAACAUGAGGAUCACCCAUGUCAGGAUAUCAAAAAGAAAAGAAAAGAAAGAAGAAUGAGAAGGGACAAGAA [Khasekhem(wy)]	32.1	27.5

Sequence	apparent KD of MS2 coat protein (MS2 coat protein [1]) [nM]	apparent KD of MS2 coat protein (MS2 coat protein [2]) [nM]
AGAAAACAUGAGGAUCACCCAUGUGAGGAUAUGCGAAUAAAGAAACAAAUAAAAGAAAGCAGAAGGCACAACAA [Ex 1 Tesla 4]	36	31.9
AGAAAGCUAGGAUAUACCUGGAGGGUUCGAAAUGAAAUAAAACAUGAGGAUCACCCAUGUAGAAGGAGCCCGAG [Veislela]	28	42.6
AGAAAGUCAGGAUAUACAGAAAAAAAAACGAAAAAAAAUCUGUAGAAGGGACAUGAGGAUCACCCAUGUAAAGA [Mat - Exclusion 4 - Mayanna - D124]	36.8	66.1
AGAAAGUCAGGAUAUAUGCGAAAAAUAAAAAAAAUAAAAACAUAGAAGGGACAUGAGGAUCACCCAUGUUAAGA [Mat - Exclusion 4 - Mayanna - D136]	32	50
AGAAAGUCAGGAUAUGCAGAUAAAAAAACGAAAAAAAAUCUGCAGAAGGGACAUGAGGAUCACCCAUGUAAAGA [Mat - Exclusion 4 - Mayanna - D111]	40.2	52.3
AGAAAGUCAGGAUAUGCGAAGGCGUCUGAUAGACGAGGCUAGCAGAAGGGACAUGAGGAUCACCCAUGUGAAGA [Mat - Exclusion 4 - Eli mod - D85]	86.4	55
AGAAAGUGAGGAUAUCGAAGACUGUCGAAAAGACAGUCGAACGAGAAGGCACAUGAGGAUCACCCAUGUGAGGG [Mat - Exaclusion 4 - Eli mod - D67]	58.2	76.3
AGAAAGUGAGGAUAUUCGGAUAGGAAAACGAAAACCUAUCCGAAGAAGGCACAUGAGGAUCACCCAUGUAAAAA [Mat - Exaclusion 4 - Eli mod - D38]	37.5	33.2
AGAAAGUGAGGAUAUUCGGAUAGGAAAACGAAAACCUAUCCGAAGAAGGCACAUGAGGAUCACCCAUGUAAAGA [Mat - Exaclusion 4 - Eli mod - D39]	54	39.6
AGAAUACAUGAGGAUCACCCAUGUGAGGAUAUGUAGAUAAAAAUAAAAUAAAAUAAAUACAGAAGGCACAAAAG [EX 1 May 19]	59.7	61.3
AGACAUACAGGAUAUACAUAGGAAAAAAAAAAAAAAAUUCAACAUGAGGAUCACCCAUGUAGAAGGGUAUGUCA [Ex2 Design 172: Random 2]	69.9	65.5
AGACAUACAGGAUAUACAUGGGAAAAAAAAAAAAAAAUUCUACAUGAGGAUCACCCAUGUAGAAGGGUAUGUCA [Ex2 Design 171: Random 1B]	31.1	81.1
AGAGACAGAGGAUAUACAUGAGGAUCACCCAUGUAAAAGAAAGAAAAGGGAAAGAAAAGUAGAAGGCUGAGAGA [Ruby 66]	25.4	23.6
AGAGAGAGAGGAUAUACAUGAGGAUCACCCAUGUAAAAGAAAGAAAAGGGAAAGAAAAGUAGAAGGCUCAGAGA [Ruby 65]	53.5	31.6
AGAUAGUCAGGAUAUACGAACAAGAAAAAAGACGAGAACGGACAUGAGGAUCACCCAUGUAGAAGGGACUAGAA [Diamond 11]	28.6	45
AGCAAGUCAGGAUAUACGAAUAAGACAAAAGACGUGAAGGGACAUGAGGAUCACCCAUGUAGAAGGGACAAGCA [LROPPY Exclusion 2 - v01_mod Fisker]	60.5	80.9
AGCACGUCAGGAUAUACGAACACAAAGGGUAACAACAAGGGACAUGAGGAUCACCCAUGUAGAAGGGACAAGCA [Diamond 95]	79.2	73.5
AGCGAGUAAGGAUAUCGGAAAGGACACGAAAGUGACAAAGACGAGAAGGUACAUGAGGAUCACCCAUGUAAAAA [milkweed 25]	17.8	26.8
AGCUAGAGAGGAUAUACGUGAGUGAUAAAAGUCUGAUAACUACAUGAGGAUCACCCAUGUAGAAGGCUCUAGCA [Ex2 Design 166: Sub-opt 30]	22.2	69.1
AGCUAGUCAGGAUAUACGAAAAUGAACGAAGCUGAGAAGGGACAUGAGGAUCACCCAUGUAGAAGGGACUAGCA [Diamond 34]	137	47.7
